Measured values reported in US20260209293A1 (Novo Nordisk, published 2026).
*1 amine or outer side, *2 acyl side, *3 side chain or, on linkers, in order; H or OH if unused. Side-chain parts run from the residue outwards. The star is where a group is joined. C20 diacid = O=C(O)CCCCCCCCCCCCCCCCCCC(=O)*; C18 diacid = O=C(O)CCCCCCCCCCCCCCCCC(=O)*; γGlu = O=C(O)[C@H](CCC(=O)[*:2])N[*:1]

Assays:
[1] = target: T1, human amylin-3(a) receptor (human, UniProt P30988 25-474; O60896 24-148); assay: cell-based or functional assay
T1 sequence (looked up) 1: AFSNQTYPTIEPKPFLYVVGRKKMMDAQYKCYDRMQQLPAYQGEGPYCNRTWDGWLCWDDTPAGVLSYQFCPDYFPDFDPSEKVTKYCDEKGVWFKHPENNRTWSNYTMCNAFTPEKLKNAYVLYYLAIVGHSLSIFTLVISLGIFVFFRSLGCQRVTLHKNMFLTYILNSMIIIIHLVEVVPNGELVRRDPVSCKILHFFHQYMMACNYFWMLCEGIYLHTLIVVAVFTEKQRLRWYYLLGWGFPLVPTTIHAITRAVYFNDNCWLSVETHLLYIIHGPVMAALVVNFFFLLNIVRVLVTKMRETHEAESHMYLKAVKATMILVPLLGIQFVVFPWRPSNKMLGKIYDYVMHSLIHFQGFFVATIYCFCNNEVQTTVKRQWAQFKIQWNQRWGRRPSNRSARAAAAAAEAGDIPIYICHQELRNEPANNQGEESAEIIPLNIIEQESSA
T1 sequence (looked up) 2: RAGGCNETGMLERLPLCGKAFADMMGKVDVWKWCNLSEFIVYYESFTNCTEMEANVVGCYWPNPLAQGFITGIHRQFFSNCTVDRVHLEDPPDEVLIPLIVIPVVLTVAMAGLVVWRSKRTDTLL

[2] = target: T2, human calcitonin receptor (a) (human, UniProt P30988 25-474); assay: cell-based or functional assay
T2 sequence (looked up): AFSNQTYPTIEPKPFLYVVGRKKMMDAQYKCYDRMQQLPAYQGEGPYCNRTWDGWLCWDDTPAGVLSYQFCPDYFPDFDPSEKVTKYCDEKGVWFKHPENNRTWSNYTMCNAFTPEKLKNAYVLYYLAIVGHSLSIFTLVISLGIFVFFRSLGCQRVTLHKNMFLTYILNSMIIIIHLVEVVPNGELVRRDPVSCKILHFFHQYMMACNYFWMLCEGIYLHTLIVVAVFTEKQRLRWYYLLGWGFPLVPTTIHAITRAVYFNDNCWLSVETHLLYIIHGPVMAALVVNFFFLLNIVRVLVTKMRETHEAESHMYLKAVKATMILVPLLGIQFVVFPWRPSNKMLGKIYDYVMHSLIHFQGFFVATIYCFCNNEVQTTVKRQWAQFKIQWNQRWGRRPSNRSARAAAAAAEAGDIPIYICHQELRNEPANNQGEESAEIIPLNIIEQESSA

B1: N^1-[(4S)-4-carboxy-4-(17-carboxyheptadecanoylamino)butanoyl]-[Ala1,Ser2,His3,Leu4,Ser5,Ala7,Gln8,Ala10,Glu14,His17,Asp21,Pro25,Pro28,Pro29,Asp31]-human amylin (peptide)
peptide: {C18 diacid-γGlu}-ASHLSTAQTARLAEFLHHSSDNFGPILPPTDVGSNTY-NH2
SMILES: CC[C@H](C)[C@H](NC(=O)[C@@H]1CCCN1C(=O)CNC(=O)[C@H](Cc1ccccc1)NC(=O)[C@H](CC(N)=O)NC(=O)[C@H](CC(=O)O)NC(=O)[C@H](CO)NC(=O)[C@H](CO)NC(=O)[C@H](Cc1c[nH]cn1)NC(=O)[C@H](Cc1c[nH]cn1)NC(=O)[C@H](CC(C)C)NC(=O)[C@H](Cc1ccccc1)NC(=O)[C@H](CCC(=O)O)NC(=O)[C@H](C)NC(=O)[C@H](CC(C)C)NC(=O)[C@H](CCCNC(=N)N)NC(=O)[C@H](C)NC(=O)[C@@H](NC(=O)[C@H](CCC(N)=O)NC(=O)[C@H](C)NC(=O)[C@@H](NC(=O)[C@H](CO)NC(=O)[C@H](CC(C)C)NC(=O)[C@H](Cc1c[nH]cn1)NC(=O)[C@H](CO)NC(=O)[C@H](C)NC(=O)CC[C@H](NC(=O)CCCCCCCCCCCCCCCCC(=O)O)C(=O)O)[C@@H](C)O)[C@@H](C)O)C(=O)N[C@@H](CC(C)C)C(=O)N1CCC[C@H]1C(=O)N1CCC[C@H]1C(=O)N[C@H](C(=O)N[C@@H](CC(=O)O)C(=O)N[C@H](C(=O)NCC(=O)N[C@@H](CO)C(=O)N[C@@H](CC(N)=O)C(=O)N[C@H](C(=O)N[C@@H](Cc1ccc(O)cc1)C(N)=O)[C@@H](C)O)C(C)C)[C@@H](C)O
[1]
  hAmyR3 potency, EC50 (pM); CRE-luciferase reporter in BHK cells: 1.97 pM
[2]
  hCalcR potency, EC50 (pM); CRE-luciferase reporter in BHK cells: 3.15 pM

B2: N^1-[(4S)-4-carboxy-4-(19-carboxynonadecanoylamino)butanoyl]-[Ala1,Ser2,His3,Leu4,Ser5,Ala7,Gln8,Ala10,Glu14,His17,Asp21,Pro22,Pro27,Asp31, … (peptide)
peptide: {C20 diacid-γGlu}-ASHLSTAQTARLAEFLHHSSDPFGAIPSSTDVGPDTP-NH2
SMILES: CC[C@H](C)[C@H](NC(=O)[C@H](C)NC(=O)CNC(=O)[C@H](Cc1ccccc1)NC(=O)[C@@H]1CCCN1C(=O)[C@H](CC(=O)O)NC(=O)[C@H](CO)NC(=O)[C@H](CO)NC(=O)[C@H](Cc1c[nH]cn1)NC(=O)[C@H](Cc1c[nH]cn1)NC(=O)[C@H](CC(C)C)NC(=O)[C@H](Cc1ccccc1)NC(=O)[C@H](CCC(=O)O)NC(=O)[C@H](C)NC(=O)[C@H](CC(C)C)NC(=O)[C@H](CCCNC(=N)N)NC(=O)[C@H](C)NC(=O)[C@@H](NC(=O)[C@H](CCC(N)=O)NC(=O)[C@H](C)NC(=O)[C@@H](NC(=O)[C@H](CO)NC(=O)[C@H](CC(C)C)NC(=O)[C@H](Cc1c[nH]cn1)NC(=O)[C@H](CO)NC(=O)[C@H](C)NC(=O)CC[C@H](NC(=O)CCCCCCCCCCCCCCCCCCC(=O)O)C(=O)O)[C@@H](C)O)[C@@H](C)O)C(=O)N1CCC[C@H]1C(=O)N[C@@H](CO)C(=O)N[C@@H](CO)C(=O)N[C@H](C(=O)N[C@@H](CC(=O)O)C(=O)N[C@H](C(=O)NCC(=O)N1CCC[C@H]1C(=O)N[C@@H](CC(=O)O)C(=O)N[C@H](C(=O)N1CCC[C@H]1C(N)=O)[C@@H](C)O)C(C)C)[C@@H](C)O
[1]
  hAmyR3 potency, EC50 (pM); CRE-luciferase reporter in BHK cells: 1.05 pM
[2]
  hCalcR potency, EC50 (pM); CRE-luciferase reporter in BHK cells: 1.41 pM

B3: N^1-acetyl,N{Epsilon-25}-[(4S)-4-carboxy-4-(17-carboxyheptadecanoylamino)butanoyl]-[Ala1,Ser2,His3,Leu4,Ser5,Ala7,Gln8,Ala10,Glu14,His17,Asp21,Pro22,Lys25,Pro27 … (peptide)
peptide: Ac-ASHLSTAQTARLAEFLHHSSDPFGK([γGlu-C18 diacid])IPSSTDVGPDTP-NH2
SMILES: CC[C@H](C)[C@H](NC(=O)[C@H](CCCCNC(=O)CC[C@H](NC(=O)CCCCCCCCCCCCCCCCC(=O)O)C(=O)O)NC(=O)CNC(=O)[C@H](Cc1ccccc1)NC(=O)[C@@H]1CCCN1C(=O)[C@H](CC(=O)O)NC(=O)[C@H](CO)NC(=O)[C@H](CO)NC(=O)[C@H](Cc1c[nH]cn1)NC(=O)[C@H](Cc1c[nH]cn1)NC(=O)[C@H](CC(C)C)NC(=O)[C@H](Cc1ccccc1)NC(=O)[C@H](CCC(=O)O)NC(=O)[C@H](C)NC(=O)[C@H](CC(C)C)NC(=O)[C@H](CCCNC(=N)N)NC(=O)[C@H](C)NC(=O)[C@@H](NC(=O)[C@H](CCC(N)=O)NC(=O)[C@H](C)NC(=O)[C@@H](NC(=O)[C@H](CO)NC(=O)[C@H](CC(C)C)NC(=O)[C@H](Cc1c[nH]cn1)NC(=O)[C@H](CO)NC(=O)[C@H](C)NC(C)=O)[C@@H](C)O)[C@@H](C)O)C(=O)N1CCC[C@H]1C(=O)N[C@@H](CO)C(=O)N[C@@H](CO)C(=O)N[C@H](C(=O)N[C@@H](CC(=O)O)C(=O)N[C@H](C(=O)NCC(=O)N1CCC[C@H]1C(=O)N[C@@H](CC(=O)O)C(=O)N[C@H](C(=O)N1CCC[C@H]1C(N)=O)[C@@H](C)O)C(C)C)[C@@H](C)O
[1]
  hAmyR3 potency, EC50 (pM); CRE-luciferase reporter in BHK cells: 1.38 pM
[2]
  hCalcR potency, EC50 (pM); CRE-luciferase reporter in BHK cells: 1.29 pM

B4: N^1-acetyl,N{Epsilon-25}-[(4S)-4-carboxy-4-(17-carboxyheptadecanoylamino)butanoyl]-[Ala1,Ser2,His3,Leu4,Ser5,Ala7,Gln8,Ala10,Glu14,His17,Asp21,Lys25,Pro28,Pro29 … (peptide)
peptide: Ac-ASHLSTAQTARLAEFLHHSSDNFGK([γGlu-C18 diacid])ILPPTDVGSNTP-NH2
SMILES: CC[C@H](C)[C@H](NC(=O)[C@H](CCCCNC(=O)CC[C@H](NC(=O)CCCCCCCCCCCCCCCCC(=O)O)C(=O)O)NC(=O)CNC(=O)[C@H](Cc1ccccc1)NC(=O)[C@H](CC(N)=O)NC(=O)[C@H](CC(=O)O)NC(=O)[C@H](CO)NC(=O)[C@H](CO)NC(=O)[C@H](Cc1c[nH]cn1)NC(=O)[C@H](Cc1c[nH]cn1)NC(=O)[C@H](CC(C)C)NC(=O)[C@H](Cc1ccccc1)NC(=O)[C@H](CCC(=O)O)NC(=O)[C@H](C)NC(=O)[C@H](CC(C)C)NC(=O)[C@H](CCCNC(=N)N)NC(=O)[C@H](C)NC(=O)[C@@H](NC(=O)[C@H](CCC(N)=O)NC(=O)[C@H](C)NC(=O)[C@@H](NC(=O)[C@H](CO)NC(=O)[C@H](CC(C)C)NC(=O)[C@H](Cc1c[nH]cn1)NC(=O)[C@H](CO)NC(=O)[C@H](C)NC(C)=O)[C@@H](C)O)[C@@H](C)O)C(=O)N[C@@H](CC(C)C)C(=O)N1CCC[C@H]1C(=O)N1CCC[C@H]1C(=O)N[C@H](C(=O)N[C@@H](CC(=O)O)C(=O)N[C@H](C(=O)NCC(=O)N[C@@H](CO)C(=O)N[C@@H](CC(N)=O)C(=O)N[C@H](C(=O)N1CCC[C@H]1C(N)=O)[C@@H](C)O)C(C)C)[C@@H](C)O
[1]
  hAmyR3 potency, EC50 (pM); CRE-luciferase reporter in BHK cells: 1.16 pM
[2]
  hCalcR potency, EC50 (pM); CRE-luciferase reporter in BHK cells: 1.16 pM

B5: N^1-[(4S)-4-carboxy-4-(17-carboxyheptadecanoylamino)butanoyl]-[Ala1,Ser2,His3,Leu4,Ser5,Ala7,Gln8,Ala10,Glu14, His17, Pro25, Pro28, … (peptide)
peptide: {C18 diacid-γGlu}-ASHLSTAQTARLAEFLHHFGPILPPTDVGSETY-NH2
SMILES: CC[C@H](C)[C@H](NC(=O)[C@@H]1CCCN1C(=O)CNC(=O)[C@H](Cc1ccccc1)NC(=O)[C@H](Cc1c[nH]cn1)NC(=O)[C@H](Cc1c[nH]cn1)NC(=O)[C@H](CC(C)C)NC(=O)[C@H](Cc1ccccc1)NC(=O)[C@H](CCC(=O)O)NC(=O)[C@H](C)NC(=O)[C@H](CC(C)C)NC(=O)[C@H](CCCNC(=N)N)NC(=O)[C@H](C)NC(=O)[C@@H](NC(=O)[C@H](CCC(N)=O)NC(=O)[C@H](C)NC(=O)[C@@H](NC(=O)[C@H](CO)NC(=O)[C@H](CC(C)C)NC(=O)[C@H](Cc1c[nH]cn1)NC(=O)[C@H](CO)NC(=O)[C@H](C)NC(=O)CC[C@H](NC(=O)CCCCCCCCCCCCCCCCC(=O)O)C(=O)O)[C@@H](C)O)[C@@H](C)O)C(=O)N[C@@H](CC(C)C)C(=O)N1CCC[C@H]1C(=O)N1CCC[C@H]1C(=O)N[C@H](C(=O)N[C@@H](CC(=O)O)C(=O)N[C@H](C(=O)NCC(=O)N[C@@H](CO)C(=O)N[C@@H](CCC(=O)O)C(=O)N[C@H](C(=O)N[C@@H](Cc1ccc(O)cc1)C(N)=O)[C@@H](C)O)C(C)C)[C@@H](C)O
[1]
  hAmyR3 potency, EC50 (pM); CRE-luciferase reporter in BHK cells: 2.11 pM
[2]
  hCalcR potency, EC50 (pM); CRE-luciferase reporter in BHK cells: 2.78 pM

B6: N^1-[(4S)-4-carboxy-4-(17-carboxyheptadecanoylamino)butanoyl]-[Ala1,Ser2,His3,Leu4,Ser5,Ala7,Gln8,Ala10,Glu14,His17,Pro25,Pro28,Pro29,Asp31,Glu35,Pro37],des-(19 … (peptide)
peptide: {C18 diacid-γGlu}-ASHLSTAQTARLAEFLHHFGPILPPTDVGSETP-NH2
SMILES: CC[C@H](C)[C@H](NC(=O)[C@@H]1CCCN1C(=O)CNC(=O)[C@H](Cc1ccccc1)NC(=O)[C@H](Cc1c[nH]cn1)NC(=O)[C@H](Cc1c[nH]cn1)NC(=O)[C@H](CC(C)C)NC(=O)[C@H](Cc1ccccc1)NC(=O)[C@H](CCC(=O)O)NC(=O)[C@H](C)NC(=O)[C@H](CC(C)C)NC(=O)[C@H](CCCNC(=N)N)NC(=O)[C@H](C)NC(=O)[C@@H](NC(=O)[C@H](CCC(N)=O)NC(=O)[C@H](C)NC(=O)[C@@H](NC(=O)[C@H](CO)NC(=O)[C@H](CC(C)C)NC(=O)[C@H](Cc1c[nH]cn1)NC(=O)[C@H](CO)NC(=O)[C@H](C)NC(=O)CC[C@H](NC(=O)CCCCCCCCCCCCCCCCC(=O)O)C(=O)O)[C@@H](C)O)[C@@H](C)O)C(=O)N[C@@H](CC(C)C)C(=O)N1CCC[C@H]1C(=O)N1CCC[C@H]1C(=O)N[C@H](C(=O)N[C@@H](CC(=O)O)C(=O)N[C@H](C(=O)NCC(=O)N[C@@H](CO)C(=O)N[C@@H](CCC(=O)O)C(=O)N[C@H](C(=O)N1CCC[C@H]1C(N)=O)[C@@H](C)O)C(C)C)[C@@H](C)O
[1]
  hAmyR3 potency, EC50 (pM); CRE-luciferase reporter in BHK cells: 1.06 pM
[2]
  hCalcR potency, EC50 (pM); CRE-luciferase reporter in BHK cells: 1.76 pM
